This is an account of results in publication PMC8252718, “carba Nicotinamide Adenine Dinucleotide Phosphate: Robust Cofactor for Redox Biocatalysis” (Angewandte Chemie (International Ed. in English), 2021).

Substrate in data set [1]: NC(=O)c1ccc[n+]([C@@H]2C[C@H](COP(=O)(O)OP(=O)(O)OC[C@H]3O[C@@H](n4cnc5c(N)ncnc54)[C@H](OP(=O)(O)O)[C@@H]3O)[C@@H](O)[C@H]2O)c1
Nature of the data set: purified protein, by the assay type. On the set-up: Spectrophotometric steady-state kinetics with varied oxidised cofactor in 96-well plates. The note with it: pH 8.0. From the text:
(§1) 12 cofactor concentrations of both cofactors ([NADP+ ] or [cNADP+ ]) x 2 (duplicates) = 48 reaction mixtures The enzyme concentration [E] as well as the buffer concentration [buffer] and the measurement conditions ( such as temperature of measurement (Tmeasure); volume (V), preheating time (theat), sequence of process steps (pipetting, preheating, addition of enzyme and measurement) were kept constant for the measurements of a kinetic. The reaction mixtures were pipetted in MTPs with the help of LHS, followed by preheating of the mixture and addition of 25 µL of enzyme solution was added with an electric MCP in multi-dispense mode, and measurement in an Epoch 2 - BioTek photometer. […] Detailed values of concentrations and reaction conditions can be found in the corresponding figures and their discriptons. SUPPORTING INFORMATION S5 Enzymatic activity measurements for NADP+ and carba-NADP+ All assays were performed in 96-well MTP plates in a reaction volume of 200 µL. Reactions were started by adding the enzyme. A detailed overview is given in (Table 2) showing the preferred reaction, the acceptance towards both cofactors (NADP(H) and carba-NADP(H)) and further reaction conditions. For all reactions, multiple negative reactions, were performed without adding a cofactor, enzyme or substrate, respectively. Production of carba-NADP+ The cofactor carba-NADP+ was prepared according to literature(WO 2011/012270 A1) by means of chemical and biocatalytical methods.[2] […] Reaction was followed spectrophotometrically. After full reduction, SsGDH was removed using a centrifugal filter with 10 kDa cut-off. The reduced cofactor was stored at -80 °C until further use. 10 mM stock was diluted 1:10 within the final reaction mixture. Biocatalytic approaches using (carba)-NADPH thus contained 2 mM glucose, 1 mM gluconic acid and 0.2 mM Tris-HCl as contaminants.

Substrate in data set [2]: NC(=O)c1ccc[n+]([C@@H]2O[C@H](COP(=O)(O)OP(=O)(O)OC[C@H]3O[C@@H](n4cnc5c(N)ncnc54)[C@H](OP(=O)(O)O)[C@@H]3O)[C@@H](O)[C@H]2O)c1
In words: purified protein, by the assay type. On the set-up: Spectrophotometric steady-state kinetics with varied oxidised cofactor in 96-well plates. The note with it: pH 8.0.
Description: as §1

Substrate in data set [3]: NC(=O)c1ccc[n+]([C@@H]2C[C@H](COP(=O)(O)OP(=O)(O)OC[C@H]3O[C@@H](n4cnc5c(N)ncnc54)[C@H](OP(=O)(O)O)[C@@H]3O)[C@@H](O)[C@H]2O)c1
Nature of the data set: steady-state kinetics. The format is biochemical, Saccharolobus solfataricus. The note with it: sugar oxidation; D-glucose activity about half of that with NADP+; varied: cofactor. From the text: (§2) steady-state kinetics on SsGDH | Looking deeper into the kinetic parameters of a selection of five enzymes | decreased Michaelis constant (K m) for the biomimetic for most of the enzymes

Substrate in data set [4]: NC(=O)c1ccc[n+]([C@@H]2O[C@H](COP(=O)(O)OP(=O)(O)OC[C@H]3O[C@@H](n4cnc5c(N)ncnc54)[C@H](OP(=O)(O)O)[C@@H]3O)[C@@H](O)[C@H]2O)c1
In words: steady-state kinetics. Type of data set: biochemical, Saccharolobus solfataricus. The note with it: sugar oxidation; natural cofactor; varied: cofactor.
Description: as §2

B1: ScG6PDH (Saccharomyces cerevisiae S288C) (protein)
chain: SEGPVKFEKNTVISVFGASGDLAKKKTFPALFGLFREGYLDPSTKIFGYARSKLSMEEDLKSRVLPHLKKPHGEADDSKVEQFFKMVSYISGNYDTDEGFDELRTQIEKFEKSANVDVPHRLFYLALPPSVFLTVAKQIKSRVYAENGITRVIVEKPFGHDLASARELQKNLGPLFKEEELYRIDHYLGKELVKNLLVLRFGNQFLNASWNRDNIQSVQISFKERFGTEGRGGYFDSIGIIRDVMQNHLLQIMTLLTMERPVSFDPESIRDEKVKVLKAVAPIDTDDVLLGQYGKSEDGSKPAYVDDDTVDKDSKCVTFAAMTFNIENERWEGVPIMMRAGKALNESKVEIRLQYKAVASGVFKDIPNNELVIRVQPDAAVYLKFNAKTPGLSNATQVTDLNLTYASRYQDFWIPEAYEVLIRDALLGDHSNFVRDDELDISWGIFTPLLKHIERPDGPTPEIYPYGSRGPKGLKEYMQKHKYVMPEKHPYAWPVTKPEDTKDN
notes: details only in supplement
Regarding B1, in data set [1], the Km was found to be 26 µM, the Vmax is 14 µmol/min/mg, the kcat was found to be 13.4 s⁻¹ and the kcat/Km was 516000 M⁻¹ s⁻¹. In addition, in data set [2], the Km worked out at 157 µM, the Vmax was 245 µmol/min/mg, the kcat is 235 s⁻¹ and the kcat/Km is 1.5e+06 M⁻¹ s⁻¹.

B2: SsGDH (Saccharolobus solfataricus) (protein)
chain: MKAIIVKPPNAGVQVKDVDEKKLDSYGKIKIRTIYNGICGTDREIVNGKLTLSTLPKGKDFLVLGHEAIGVVEESYHGFSQGDLVMPVNRRGCGICRNCLVGRPDFCETGEFGEAGIHKMDGFMREWWYDDPKYLVKIPKSIEDIGILAQPLADIEKSIEEILEVQKRVPVWTCDDGTLNCRKVLVVGTGPIGVLFTLLFRTYGLEVWMANRREPTEVEQTVIEETKTNYYNSSNGYDKLKDSVGKFDVIIDATGADVNILGNVIPLLGRNGVLGLFGFSTSGSVPLDYKTLQEIVHTNKTIIGLVNGQKPHFQQAVVHLASWKTLYPKAAKMLITKTVSINDEKELLKVLREKEHGEIKIRILWE
notes: details only in supplement
For B2, in data set [3], the Km came out at 10 µM and the kcat amounted to 1.0 s⁻¹. In data set [4], the Km turned out to be 80 µM and the kcat amounted to 2.25 s⁻¹.

B3: LmG6PDH (Leuconostoc mesenteroides) (protein)
chain: VSEIKTLVTFFGGTGDLAKRKLYPSVFNLYKKGYLQKHFAIVGTARQALNDDEFKQLVRDSIKDFTDDQAQAEAFIEHFSYRAHDVTDAASYAVLKEAIEEAADKFDIDGNRIFYMSVAPRFFGTIAKYLKSEGLLADTGYNRLMIEKPFGTSYDTAAELQNDLENAFDDNQLFRIDHYLGKEMVQNIAALRFGNPIFDAAWNKDYIKNVQVTLSEVLGVEERAGYYDTAGALLDMIQNHTMQIVGWLAMEKPESFTDKDIRAAKNAAFNALKIYDEAEVNKYFVRAQYGAGDSADFKPYLEELDVPADSKNNTFIAGELQFDLPRWEGVPFYVRSGKRLAAKQTRVDIVFKAGTFNFGSEQEAQEAVLSIIIDPKGAIELKLNAKSVEDAFNTRTIDLGWTVSDEDKKNTPEPYERMIHDTMNGDGSNFADWNGVSIAWKFVDAISAVYTADKAPLETYKSGSMGPEASDKLLAANGDAWVFKG
notes: details only in supplement
On to B3, for which, in data set [1], the Km was determined as 27 µM, the Vmax was 45 µmol/min/mg, the kcat is 40.7 s⁻¹ and the kcat/Km is 1.51e+06 M⁻¹ s⁻¹. In data set [2], the Km stood at 75 µM, the Vmax amounted to 166 µmol/min/mg, the kcat was 150 s⁻¹ and the catalytic efficiency (kcat/Km) is 2e+06 M⁻¹ s⁻¹.

In general, Km refers to the concentration of substrate that gives half-maximal velocity. A word on the Vmax: it is the rate approached at saturating substrate. The kcat is the maximal rate divided by the concentration of active sites. For orientation: kcat/Km means the second-order rate constant that governs catalysis at low substrate concentration.
